Marks after values point to notes of the source that are not given here.
Experiments:
[1] = test system: RD (skeletal muscle cancer cells); experiment: Annexin-V binding apoptosis assay after transfection, RD cells; assay type: cell-based, human; settings: annexin-V binding four hours after transfection
Description: (§1) In these experiments, C/EBPβ-Ala^217 was tested in two mesenchymal cell lines for its ability to induce apoptosis. Human mesenchymal cell lines 1321-N1 (glial cancer cells; obtained from Dr. Joan Brown, at the University of California, San Diego), RD (skeletal muscle cancer cells; ATCC Accession No. CCL-136), human fibroblasts (98VA3N cells, obtained from Dr. Jerry VanderBerg, at the Veterans Administration Medical Center, San Diego, Calif.), ES2 (ovarian cancer cell line), C3A (liver cancer cell line), and MCF-7 breast cancer cells were cultured in minimal essential medium supplemented with fetal bovine serum as known in the art (See e.g., Buck et al., EMBO J., 13:151-160 (1994)). As additional cell types find use in the present invention, it is not intended that the present invention be limited to these specific cell lines. Indeed, similar results have been obtained with other cell types (e.g., CCF-STTG1 cells (ATCC Accession No. CRL-1718)) (data not shown).
(§2) Cells were co-transfected with vectors expressing the indicator protein GFP and C/EBPβ-Ala^217 as known in the art (See, Buck et al., Mol. Cell., 4:1087-1092 (1999)). Control cells were only transfected with GFP. […]

hepatic stellate cells = experiment: Apoptosis of activated stellate cells transfected with C/EBPβ constructs, annexin-V-PE binding; assay type: cell-based, mouse; settings: transfected cells on collagen type I matrix
Description: FIG. 1 provides data showing that phosphorylation of C/EBPβ on Thr^217 is required for hepatic stellate cell survival. Panel A provides phosphopeptide maps of in vivo labeled endogenous C/EBPβ in day-4 quiescent and activated primary mouse stellate cells cultured from the time of isolation on EHS or collagen type I matrix, respectively. The arrow indicates the peptide containing Phospho-Thr^217 in activated cells. […] Panel B provides phosphopeptide maps of in vitro labeled C/EPBβ. Active p90RSK phosphorylated C/EPBβ, but not C/EBPβ-Ala^217 on Thr^217 in vitro (arrowheads). Panel C provides results for cells cultured on collagen type I transfected with MSV-C/EBPβ antisense (AS), MSV-C/EBPβ sense (S), or MSV-C/EBPβ-Ala^217 together with CMV-GFP (green fluorescent protein) and p90RSK (1 μg each), as indicated in the Figure. Four hours after transfection, annexin-V-PE binding to plasma membranes was determined. The values presented are the percentage of transfected cells (green) that were annexin-V-PE (+) (red) (P<0.05 for C/EBPβ AS, and C/EBPβ-Ala^217). Panel D provides results for cells transfected as in […] with vectors expressing dominant negative mutants for MEKK1, IκBα, or p90RSK, or treated with the proteasome inhibitor lactacystin (10 μM) (closed bars), and co-transfected with MSV-C/EBPβ-Glu^217 (1 μg each) (open bars) as indicated. Annexin-V-PE binding was determined as described for Panel A (P<0.05 for C/EBPβ-Glu^217). Panel E provides results for cells transfected as described for Panel C, with a dominant-negative p90RSK, treated with FAS (100 nM for 6 hours) or cultured in a serum-free medium for 6 hours (closed bars), and co-transfected with MSV-C/EBPβ-Glu^217 (1 μg each) (open bars), as indicated. Cell death was determined by nuclear staining with Hoechst 33342 (P<0.05 for C/EBPβ-Glu^217 in RSK mut and FAS-treated cells).
FIG. 4 provides results showing that C/EBPβ PThr^217 associates with procaspases 1 and 8, and inhibits their activation. Panel A provides schematic representations of C/EBPβ peptides. The activation (dotted bars), DNA binding (solid bars) and dimerization (hatched bars) domains are shown. […] Panel C provides results showing that C/EBPβ and procaspase 8 were detected in activated stellate cells isolated from C/EBPβ^+/+ mice by confocal microscopy using specific antibodies (Santa Cruz Biotechnology). Control C/EBPβ^−/− stellate cells were negative for C/EBPβ, positive for procaspase 8, and apoptotic. Panel D provides immunoblot results for MSV vectors expressing C/EBPβ-HA (hemagglutinin protein) peptides (0.3 μg) transfected into activated stellate cells. The expressed peptides were immunoprecipitated with anti-HA antibodies. C/EBPβ-PThr^217 was detected using a specific antibody, only in cells expressing wild-type C/EBPβ. […] RSK was associated with all C/EBPβ peptides. Neither C/EBPβ nor procaspases 1 and 8 were detected in C/EBPβ immunoprecipitates from cells expressing C/EBPβ AS. Reciprocal immunoprecipitations of procaspases and RSK confirmed these associations.
Adult male Sprague-Dawley rats and adult male C/EBPβ^+/+ and C/EBPβ^−/− (Screpanti et al., supra; and Buck et al., (1999), supra), C/EBPβ-Ala^217 and C/EBPβ-Asp^105 transgenic mice were used for the isolation of primary hepatic stellate cells (Houglum et al., supra). Primary hepatic stellate cells were isolated by collagenase/pronase perfusion and purified by a single step density Nycodenz gradient (Accurate Chemical & Scientific) as known in the art (See, Lee et al., (1995), supra). Cells were plated on type I collagen matrix (Becton Dickinson) or EHS matrix (Matrigel, Collaborative Biomedical Products). Cells were cultured with 10% fetal calf serum/10% fetal bovine serum and transfected with lipofectamine (GIBCO) for DNA vectors or with the Chariot reagent (Active Motif) for peptides (10 μM) as known in the art (See, Houglum et al., supra; and Morris et al., J. Biol. Chem., 274:24942-24946 (1999)). […]

[2] = test system: 1321-N1 (glial cancer cells); experiment: Annexin-V binding apoptosis assay after transfection, 1321-N1 cells; assay type: cell-based, human; settings: annexin-V binding four hours after transfection
Description: as §1, §2

[3] = test system: human fibroblasts (98VA3N cells); experiment: Annexin-V binding apoptosis assay after transfection, 98VA3N cells; assay type: cell-based; settings: annexin-V binding four hours after transfection
Description: as §1, §2

[4] = test system: ES2 (ovarian cancer cell line); experiment: Annexin-V binding apoptosis assay after transfection, ES2 cells; assay type: cell-based, human; settings: annexin-V binding four hours after transfection
Description: as §1, §2

[5] = test system: MCF-7 breast cancer cells; experiment: Annexin-V binding apoptosis assay after transfection, MCF-7 cells; assay type: cell-based, human; settings: annexin-V binding four hours after transfection
Description: as §1, §2

[6] = test system: C3A (liver cancer cell line); experiment: Annexin-V binding apoptosis assay after transfection, C3A cells; assay type: cell-based, human; settings: annexin-V binding four hours after transfection
Description: as §1, §2

B1: C/EBPβ-Ala^217: modified murine C/EBPβ with mutation of Thr^217 to Ala (SEQ ID NO:3), nonphosphorylatable dominant negative mutant (protein, listed as Mus musculus)
chain: MHRLLAWDAACLPPPPAAFRPMEVANFYYEPDCLAYGAKAARAAPRAPAAEPAIGEHERAIDFSPYLEPLAPAADFAAPAPAHHDFLSDLFADDYGAKPSKKPADYGYVSLGRAGAKAAPPACFPPPPPAALKAEPGFEPADCKRADDAPAMAAGFPFALRAYLGYQATPSGSSGSLSTSSSSSPPGTPSPADAKAAPAACFAGPPAAPAKAKAKKAVDKLSDEYKMRRERNNIAVRKSRDKAKMRNLETQHKVLELTAENERLQKKVEQLSRELSTLRNLFKQLPEPLLASAGHC
Apoptosis (%) [1]: 46* % | Effect of expressed construct on apoptosis / survival of stellate cells (hepatic stellate cells): became apoptotic | Apoptosis (%) [2]: 56* % | Apoptosis (%) [3]: 80* % | Apoptosis (%) [4]: 44* % | Apoptosis (%) [5]: 49* % | Apoptosis (%) [6]: 34* %

Reference: US8129349B2, “Treatment of disease by inducing cell apoptosis” (The Regents of the University of California, priority 2000, dated 2012)
